Here are results for 1 molecule from PMC3448795 (2012).

The target in experiment [1] is T1, HDM4(25-47) (Homo sapiens, not fully specified; Ca2+; peptide N-acetylated, C-amidated).
T1 chain: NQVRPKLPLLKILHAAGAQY
Briefly: ITC. On the technique in general: ITC needs no label: the signal is the heat of the interaction.

Experiment [2] concerns the target T2, TRTK12 (CapZ peptide 265-276) (Homo sapiens, not fully specified).
T2 chain: Ac-TRTKIDWNKILS-NH2
Briefly: ITC.

The target in experiment [3] is T3, HDM2(25-47) (Homo sapiens, not fully specified; Ca2+; peptide N-acetylated, C-amidated).
T3 chain: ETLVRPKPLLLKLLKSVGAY
Briefly: ITC.

Experiment [4] deals with T4, NDR(62-87), site 2 (Homo sapiens, not fully specified; Ca2+; peptide N-acetylated, C-amidated).
T4 chain: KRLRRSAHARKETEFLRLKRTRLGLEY
The experiment in a line: ITC.

Experiment [5] concerns the target T5, NDR(62-87), site 1 (Homo sapiens, not fully specified; Ca2+; peptide N-acetylated, C-amidated).
T5 chain: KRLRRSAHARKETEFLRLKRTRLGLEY
The experiment in a line: ITC.

Experiment [6] deals with T1, HDM4(25-47). Briefly: NMR line shape analysis.
Experiment [7] addresses T2, TRTK12 (CapZ peptide 265-276). Briefly: NMR line shape analysis.
The target of experiment [8] is T3, HDM2(25-47). Briefly: NMR line shape analysis.

B1: S100B (protein)
chain: SELEKAMVALIDVFHQYSGREGDKHKLKKSELKELINNELSHFLEEIKEQEVVDKVMETLDNDGDGECDFQEFMAFVAMVTTACHEFFEHE
Regarding B1, the equilibrium dissociation constant (Kd) (in general, the concentration at which binding is half-saturated) was 70 nM in experiment [1]; 2000 nM in experiment [2]; 500 nM in experiment [3]; 2000 nM in experiment [4]; 400 nM in experiment [5]; 1000 nM in experiment [6]. Besides, the equilibrium dissociation constant (Kd) in experiment [7] turned out to be 1000 nM; in experiment [8], 100 nM.
